Patent US20140186294A1, “PHAGOCYTIC ACTIVITY AS A MARKER OF SYNUCLEINOPATHIC DISEASE” (ELAN PHARMACEUTICALS, INC., priority 2010, published 2014)
“Also recorded” adds a separate entry of the source.

How the values were obtained:
synuclein protein = assay: Synuclein protein levels in IL-4 treated microglia from synuclein genomic mice; format: cell-based, mouse
Description: (§1) Human microglia were treated with IL-4 and synuclein transcript levels were measured by microarray and qPCR. Following IL-4 treatment synuclein levels were decreased by 50% in the three donors tested (FIG. 12). […] Microglia from synuclein genomic mice were treated with IL-4 for 24 hours, and while synuclein mRNA levels were decreased, protein levels were unaffected. Synuclein is turned over slowly, therefore 24 hours maybe too soon to see affects. To assess this microglia were stimulated with IL-4 for 48 hr at which time a 50% reduction in synuclein protein levels was observed. […] This may point to a direct effect of IL-4 signaling on the synuclein promoter.

peripheral macrophages = assay: Phagocytic activity screening assay, peripheral macrophages; format: cell-based
Description: (§2) The components of a screening assay include cells with phagocytic activity, a test agent being screened and an entity that can be phagocytosed. Such an entity can be inert particles, such as latex beads, preferably of size 4-10 microns. The entity can also be apoptotic cells, such as Jurkat cells). Cells and inert entities are phagocytosed by different mechanisms, the former being receptor dependent. Usually the cells are contacted with the test agent first and incubated for a period (e.g., 1-48 hr) before adding the entity to be phagocytosis. Phagocytosis can be followed by light microscopy or flow cytometry among other methods detecting uptake of the entity being phagocytosed into the phagocytic cell. Methods for detection of phagocytosis can include any fluorescent based platform (e.g., flow cytometry, microscopy, array scan, or a Tr-fret, fluorescent plate reader) enzymatic, or colorimetric readout.
(§3) The screening assay can be performed on different types of phagocytic cells in parallel or sequentially. Some agents stimulate phagocytic activity in all or multiple cell types. Other agents may stimulate phagocytic activity in some cells type but not all.

H4 neuronal cells = assay: Phagocytic activity screening assay, H4 neuronal cells; format: cell-based, human; details: H4 neuronal cells (lack an IL-4 receptor)
From the text: The screening and diagnostic assays employ cells with phagocytic activity, sometimes referred to as phagocytic cells. The cells can be human, or other mammalian, particular rodent or mouse. The cells can be obtained from a subject with synucleinopathic disease (usually a human) or a transgenic animal model of disease (e.g., a mouse). The cells can also be a cell line transformed to express an alpha synuclein gene. The cells include microglial cells or peripheral macrophages or polymorphonuclear cells or other phagocytic cells. Microglia can be obtained by biopsy or differentiating or trans-differentiation of embryonic stems cells, bone marrow, induced pluripotent or other stem or pluripotent cell sources from a subject or transgenic animal model. Such phagocytic cells have higher intracellular levels of alpha synuclein that control cells from an undiseased individual. […]
The components of a screening assay include cells with phagocytic activity, a test agent being screened and an entity that can be phagocytosed. […] Methods for detection of phagocytosis can include any fluorescent based platform (e.g., flow cytometry, microscopy, array scan, or a Tr-fret, fluorescent plate reader) enzymatic, or colorimetric readout. […]

SNARE complex = SNARE complex components in lysates of IL-4 treated microglia; format: cell-based, mouse; details: IL-4 24 hr; wild type and synuclein OE cells
Description: To determine if IL-4 worked in part by altering SNARE or vesicle movement microglia from synuclein genomic mice were treated with IL-4 for 24 hr and lysates were probed for components of the SNARE complex. […] After addition of beads we saw induction of SNARE complexes and these were enhanced following IL-4 treatment.

microglial cells = assay: Phagocytic activity screening assay, microglial cells; format: cell-based
Description: as §2, §3

synuclein mRNA [1] = assay: Synuclein transcript levels in IL-4 treated human microglia (microarray, qPCR); format: cell-based; details: IL-4 24 hours; microglia from three human donors
Description: (§4) FIG. 12: Microarray analysis of microglia isolated from three human donors were stimulated with IL-4 for 24 hours and microarray experiment performed and results were confirmed by qPCR. qPCR was also performed on microglia isolated from IL-4 treated line 26/synuclein null pups.
as §1

synuclein mRNA [2] = assay: Synuclein mRNA (qPCR) in IL-4 treated line 26/synuclein null microglia; format: cell-based, mouse
Description: as §4, §1

[3] = tested on: synuclein overexpressing microglia; assay: Bead phagocytosis (phagocytic index) of IL-4 treated microglia from synuclein genomic lines 3, 26, 422; format: cell-based, mouse; details: IL-4 24 hours, then beads 90 minutes
Description: FIG. 13: Wild type or synuclein overexpressing microglia isolated from line 3, 26, or 422 littermate pups cells were treated for 24 hours with IL-4 and the fed beads for 90 minutes and phagocytic index determined.
To investigate the role of endogenous synuclein on microglia function, we utilized a transgenic mouse model in which wild type or the E46K mutated form of human synuclein was overexpressed from a human bacterial artificial chromosome (bac). The bac construct contained the synuclein promoter and upstream sequences (45 kbp), as well as downstream 3′ sequences ([…]). Three animal lines of interest were identified; line 422 expresses wild type synuclein and two additional lines, line 26 and line 3, express the mutant E46K form. Altered microglia function associated with over expression of human synuclein was assessed in cells isolated from line 26 P1-P3 pups due in part to the high synuclein expression observed in this line. […] Significant overexpression of human synuclein in the murine microglia allowed us to assess the consequence of elevated synuclein levels on microglia function. […] Although the requirement for receptor engagement differs, both targets require activation of intracellular signaling, actin rearrangement, and mobilization of membrane to the phagocytic cup. […]

B1: IL-4: interleukin IL-4 (Swiss Prot P05112), cytokine used to treat microglia (protein, UniProt P05112 25-153, looked up)
Interleukin-4: HKCDITLQEIIKTLNSLTEQKTLCTELTVTDIFAASKNTTEKETFCRAATVLRQFYSHHEKDTRCLGATAQQFHRHKQLIRFLKRLDRNLWGLAGLNSCPVKEANQSTLENFLERLKTIMREKYSKCSS
synuclein protein levels (synuclein protein; IL-4 for 24 hours): unaffected; also recorded: did not decrease synuclein protein | reduction in synuclein protein levels (synuclein protein; IL-4 for 48 hr): 50% | stimulating phagocytic activity (peripheral macrophages): effective | stimulating phagocytic activity (H4 neuronal cells): not in H4 neuronal cells | SNARE complex components in lysates (SNARE complex): increased monomer SNAP23 Syntaxin4, and SNAP23 snare complex | stimulating phagocytic activity (microglial cells): effective | reduction in synuclein mRNA levels (synuclein mRNA [1]): 50% | reduction in synuclein mRNA levels (synuclein mRNA [2]; IL-4 treated line 26/synuclein null pup microglia, qPCR): 50% | synuclein mRNA levels (synuclein mRNA [2]; line 26/synuclein null genomic microglia, IL-4): reduced synuclein mRNA levels | phagocytosis (phagocytic index) [3]: rescue the phagocytic defect | phagocytosis (phagocytic index) ([3]; listed as 11-4): restored phagocytosis
